Earlier results as cited in PMC6964287.

Experiments:
[1] = molecular target: Asp85 (UniProt position 98, WARYADWLFTT); test: NMR; conditions: membrane-associated pHLIP; protonation linked to bilayer insertion
[2] = molecular target: Asp96 (UniProt position 109, PLLLLDLALLV); test: NMR; conditions: membrane-associated pHLIP; protonation linked to bilayer insertion

With “pHLIP (pH-Low Insertion Peptide), peptide derived from bacteriorhodopsin helix C (Halobacterium salinarum)” as the substance, how does the pKa [1] read?
Its pKa is 5.82 ± 0.08.

What about the pKa [2] of the same substance?
Its pKa is 6.08 ± 0.08.
